Results on three molecules are retold here after patent US6645762B2, “Synthases” (The Salk Institute for Biological Studies, priority 1998, dated 2003).

What all share (assay type): biochemical
A short description of data set [1]: Alkylation of enzyme by radiolabeled FPP. The note with it: dependent upon the presence of MgCl2. The protocol:
Reactions to determine the products made by TEAS W273E using FPP as substrate were carried out essentially as described above, using radioiabeled FPP. […] The alkylation was dependent upon the presence of MgCl2 in the reaction mixture. In control experiments, boiled W273E-TEAS, as well as wild-type TEAS and BSA, were not alkylated.

Data set [2] is described as follows: Diterpene synthase activity assay with radiolabelled GGPP (solvent extraction, scintillation counting, Ag-TLC). As for the experimental part: (§1) Synthase activity assays were carried out based on the assay described in Vogeli and Chappell, Plant Physiol. 94:1860 (1990) and Vogeli, et al., Plant Physiol. 93:182 (1990). In general, radio-labeled (^3H or ^14C) substrate was incubated with enzyme at room temperature in a buffered magnesium salt solution (200 mM Tris, pH 8, 50 mM Mg chloride, 1 mM DTT, unless otherwise noted); hydrocarbon products were then selectively extracted into an organic solvent such as hexane. The hexane extract generally was treated with silica gel to remove prenyl alcohols and other oxygenated compounds generated by non-enzymatic hydrolysis of substrate, which partition inefficiently into hexane. Hydrocarbon products present in the hexane phase were quantitated by scintillation counting.
A subsequent extraction with a more polar organic solvent such as ethyl acetate was sometimes carried out. Oxygenated compounds more efficiently partition into ethyl acetate-type solvents. Compounds present in the ethyl acetate phase were also quantitated by scintillation counting.
(§2) Substrate concentrations typically ranged from 0.1 nanomolar to 100 micromolar. In some assays, the substrate was not radiolabeled. Reactions generally were carried out in triplicate for each substrate concentration. Protein concentration was determined by the Bradford method. For determination of steady-state kinetic parameters, enzyme concentrations were chosen such that generation of products over time was linear throughout the course of the reaction.
(§3) Diterpene synthase assays typically were carried out using ^3H geranylgeranyl diphosphate (GGPP) and enzyme in 250 mM Tris, 10 mM Mg chloride, 1 mM DTT, pH 8.0. Sesquiterpene synthase assays typically were carried out using ^14C or ^3H FPP and enzyme in 100 mM Tris, 30 mM Mg chloride, 1 mM DTT, pH 8.0. Monoterpene synthase assays typically were carried out using ^3H GPP and enzyme. As a control for nonspecific binding of GPP by protein, identical reactions were set up which contained BSA, rather than enzyme.
(§4) Terpenoid hydrocarbon products are not readily separated by thin layer chromatography on normal or reverse-phase plates; however, some can be separated by argentation TLC (Ag-TLC), in which silica plates are first treated with silver nitrate. Ag-TLC described here generally followed the procedure described by Back et al., Arch. Biochem. Biophys. 315:527 (1994). A silica TLC plate was dipped in 15% silver nitrate (aqueous), then dried for 3-5 hours at 110° C. After spotting of tritiated enzymatic products (solvent extract), the plate was developed in benzene:hexane, ethyl acetate (50:50:1, by volume), sprayed with En^3Hance (NEN) fluorography spray, placed on film, and exposed for several days to several weeks. Long exposure times were generally necessary, as silver-nitrate treatment of the TLC plate appeared to cause quenching of the fluorography reagents fluorescence. Alternatively, ^14C labelled products were detected after one to two days without the use of fluorography spray.
The TEAS W273S enzyme and radiolabelled GGPP were incubated as described above and hydrocarbon products were extracted with hexane. Oxygenated products were then extracted with ethyl acetate.
The mutant TEAS C440W1W273S protein contains a tryptophan residue at position 440 and a serine residue at position 273. Assays with GGPP were carried out using 0.5 micromolar ^3H GGPP, various concentrations of unlabelled GGPP (Echelon), and enzyme. Reactions were incubated for 60 minutes at room temperature. […] Hexane-extractable products of GGPP turnover by the double mutant were analyzed by Ag-TLC. The products included two species (Rf=0.11 and 0.28) that were distinct from the hydrolysis product geranyl geraniol (Rf=0.0).To verify that products generated by TEAS C440W/W273S from GGPP were not the hydrolysis product, geranylgeraniol, a sample was analyzed by Ag-TLC. […]

Data set [3] in a line: Sesquiterpene synthase activity assay with radiolabelled FPP (Ag-TLC and GC/MS product analysis). To be noted: radiolabelled FPP; FIG. 4. As for the experimental part:
as §1, §2, §3, §4
Products of FPP turnover by the purified TEAS W273S mutant were analyzed by argentation thin-layer chromatography (Ag-TLC).
Reactions with FPP as substrate were carded out with ^14C FPP (9 μm) and enzyme (160 μm) in reaction buffer (20 μl). After incubating for 30 minutes at room temperature, products made by TEAS C440W/W273S were analyzed by Ag-TLC. […] The new product was distinct from both 5-epi-aristolochene and vetispiradiene. Several other products were also formed, many of which migrated slowly upon argentation TLC.
Reactions with radiolabeled FPP and TEAS Y520F enzyme were carried out essentially as described above. Reaction products were analysed by Ag-TLC and by GC/MS.

Data set [4] is described as follows: Monoterpene synthase activity assay with GPP. The note with it: crude extract of enzyme from E. coli. As for the experimental part: as §1, §3
A crude extract of TEAS Y527F enzyme was made by inducing expression in E. coli cells, and sonicating the cells. […]

Changes are numbered by the printed parent chain. Names and notes keep the numbering of the source.

B1: wild-type TEAS: tobacco 5-epi-aristolochene synthase (TEAS) protein, SEQ ID NO:2, Nicotiana tabacum (protein)
chain: MASAAVANYEEEIVRPVADFSPSLWGDQFLSFSIKNQVAEKYAQEIEALKEQTRNMLLATGMKLADTLNLIDTIERLGISYHFEKEIDDILDQIYNQNSNCNDLCTSALQFRLLRQHGFNISPEIFSKFQDENGKFKESLASDVLGLLNLYEASHVRTHADDILEDALAFSTIHLESAAPHLKSPLREQVTHALEQCLHKGVPRVETRFFISSIYDKEQSKNNVLLRFAKLDFNLLQMLHKQELAQVSRWWKDLDFVTTLPYARDRVVECYFWALGVYFEPQYSQARVMLVKTISMISIVDDTFDAYGTVKELEAYTDAIQRWDINEIDRLPDYMKISYKAILDLYKDYEKELSSAGRSHIVCHAIERMKEVVRNYNVESTWFIEGYTPPVSEYLSNALATTTYYYLATTSYLGMKSATEQDFEWLSKNPKILEASVIICRVIDDTATYEVEKSRGQIATGIECCMRDYGISTKEAMAKFQNMAETAWKDINEGLLRPTPVSTEFLTPILNLARIVEVTYIHNLDGYTHPEKVLKPHIINLLVDSIKI
Take B1: the “alkylation of the enzyme by FPP” value in data set [1] is recorded as “not alkylated”. In data set [2] (0.5 micromolar 3H GGPP plus unlabelled GGPP, 60 minutes at room temperature), the “conversion of GGPP to hexane-extractable products” value is “did not”. In data set [2] (hydrocarbon products extracted with hexane, oxygenated products with ethyl acetate, compared with buffer alone), the “counts in hexane and ethyl acetate extracts after incubation with radiolabelled GGPP” value was “counts lower than buffer alone”.

B2: TEAS W273E: TEAS protein in which Trp273 is changed to Glu, SEQ ID NO:4 (protein)
chain: B1 chain with K35D, N55S, M62R, T73I, D89E, W273E, T388M
For the molecule B2, the “alkylation of the enzyme by FPP” value in data set [1] is “alkylation of TEAS by FPP had occurred”. The “products of FPP turnover, analyzed by Ag-TLC” value in data set [3] is given as “at least one product other than 5-epi-aristolochene was formed”.

B3: TEAS Y527F: TEAS protein in which Tyr527 is changed to Phe, SEQ ID NO:8 (protein)
chain: B1 chain with K35D, N55S, M62R, T73I, D89E, T388M, Y527F
B3: the “products formed with GPP as a substrate (monoterpene synthase activity)” value in data set [4] was “No products were observed”. Also, the “products of FPP turnover, analyzed by Ag-TLC” value in data set [3] is given as “products other than 5-epi-aristolochene were generated”.
